{"source": "paper PMC3097154", "about": "(2011)", "proteins": {"B1": {"name": "HIV-1 capsid CTD CTD (protein)", "chain": "not shown"}}, "molecular_target": "the molecule itself", "assay": "ITC"}
{"protein": "B1", "values": [{"measurement": "Kd", "result": "~15", "unit": "µM"}]}
